The target of assay [1] is T1, rHuman Erythropoietin R/Fc Chimera, CF (R&D Systems Cat#963-ER) (human, UniProt P19235 25-250).
T1 construct: Bought Fc chimera; also called EPO R/Fc; EPO R; Fc part of the bought chimera not given
T1 sequence (looked up): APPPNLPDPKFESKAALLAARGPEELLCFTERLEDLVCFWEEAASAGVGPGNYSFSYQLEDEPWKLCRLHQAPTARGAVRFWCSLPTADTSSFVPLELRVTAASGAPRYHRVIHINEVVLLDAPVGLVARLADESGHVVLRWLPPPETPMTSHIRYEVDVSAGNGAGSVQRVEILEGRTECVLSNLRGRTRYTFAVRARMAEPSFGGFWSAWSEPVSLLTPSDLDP
The assay can be described thus: Multispot ECL (MSD) titration; antigen spotted on plate; Fab 58.1 nM; blank spot 225.

Assay [2] has as its target T2, rHuman Notch-1/Fc Chimera, CF (R&D Systems Cat#3647-TK) (human, UniProt P46531 19-526).
T2 construct: Bought recombinant protein; Fc part of the bought chimera not given
Put plainly: Multispot ECL (MSD) assay, antigen spotted on plate, Fab at 0.0624 µM; blank spot 960.

Assay [3] addresses T3, rHuman CD44/Fc Chimera, CF (R&D Systems Cat#3660-CD) (human, UniProt P16070 21-220).
T3 construct: Bought recombinant protein; Fc part of the bought chimera not given
Described as above.

For assay [4], the target named is T4, rHuman P-Cadherin/Fc Chimera, CF (R&D Systems Cat#861-PC) (human, UniProt P22223 108-654).
T4 construct: Bought recombinant protein; Fc part of the bought chimera not given
The description is as above.

The target of assay [5] is T5, Recombinant Human DLL4 (R&D Systems Cat#1506-D4/CF) (human, UniProt Q9NR61 27-524).
T5 construct: Bought recombinant protein; also called delta-like protein 4; rHuman DLL4
Described as above.

Assay [6] addresses T6, rHuman Erythropoietin R/Fc Chimera, CF (R&D Systems Cat#963-ER) (human, UniProt P19235 25-250).
T6 construct: Bought recombinant protein; also called EPO R/Fc; Epo R; Fc part of the bought chimera not given
T6 sequence (looked up): T1 sequence (looked up)
The description is as above.

The target of assay [7] is T7, rHuman IGF-1 sR, (IGF-1 sR), CF (R&D Systems Cat#391-GR) (human, UniProt P08069 31-932).
T7 construct: Bought recombinant soluble receptor; also called insulin-like growth factor-1 soluble receptor
The description is as above.

Assay [8] has as its target T8, rHuman EGF R/Fc Chimera, CF (R&D Systems Cat#344-ER) (human, UniProt P00533 25-645).
T8 construct: Bought recombinant protein; also called epidermal growth factor receptor (EGF R); Fc part of the bought chimera not given
The assay is described as above.

Assay [9] concerns the target T9, rHuman ErbB2/Fc Chimera, CF (R&D Systems Cat#1129-ER) (human, UniProt P04626 23-652).
T9 construct: Bought recombinant protein; also called human epidermal growth factor 2 receptor (ErbB2); Fc part of the bought chimera not given
Described as above.

Assay [10] has as its target T10, rHuman HGF R/c-MET/Fc Chimera, CF (R&D Systems Cat#358-MT/CF) (human, UniProt P08581 25-932).
T10 construct: Bought recombinant protein; also called HGF R/Fc; hepatocyte growth factor receptor (HGF R/c-Met); Fc part of the bought chimera not given
Described as above.

Assay [11] concerns the target T11, rHuman Notch-1/Fc Chimera, CF (R&D Systems Cat#3647-TK) (human, UniProt P46531 19-526).
T11 construct: Bought recombinant protein; Fc part of the bought chimera not given
The assay can be described thus: MSD multispot ECL, antigen spotted on plate; Fab 0.1275 uM; blank spot 530.

Assay [12] deals with T12, rHuman EGF R/Fc Chimera, CF (R&D Systems Cat#344-ER) (human, UniProt P00533 25-645).
T12 construct: Bought recombinant protein; also called epidermal growth factor receptor; Fc part of the bought chimera not given
The assay is described as above.

The target in assay [13] is T13, rHuman ErbB2/Fc Chimera, CF (R&D Systems Cat#1129-ER) (human, UniProt P04626 23-652).
T13 construct: Bought recombinant protein; also called human epidermal growth factor 2 receptor; Fc part of the bought chimera not given
The description is as above.

The target in assay [14] is T14, rHuman Erythropoietin R/Fc Chimera, CF (R&D Systems Cat#963-ER) (human, UniProt P19235 25-250).
T14 construct: Bought recombinant protein; also called EPO R/Fc; Epo R; Fc part of the bought chimera not given
T14 sequence (looked up): T1 sequence (looked up)
The description is as above.

Assay [15] deals with T15, rHuman CD44/Fc Chimera, CF (R&D Systems Cat#3660-CD) (human, UniProt P16070 21-220).
T15 construct: Bought recombinant protein; Fc part of the bought chimera not given
Described as above.

Assay [16] concerns the target T16, rHuman HGF R/c-MET/Fc Chimera, CF (R&D Systems Cat#358-MT/CF) (human, UniProt P08581 25-932).
T16 construct: Bought recombinant protein; also called HGF R/Fc; hepatocyte growth factor receptor; Fc part of the bought chimera not given
Described as above.

Assay [17] addresses T17, rHuman IGF-1 sR, CF (R&D Systems Cat#391-GR) (human, UniProt P08069 31-932).
T17 construct: Bought recombinant soluble receptor; also called insulin-like growth factor-1 soluble receptor
Described as above.

Assay [18] deals with T18, Recombinant Human DLL4 (R&D Systems Cat#1506-D4/CF) (human, UniProt Q9NR61 27-524).
T18 construct: Bought recombinant protein; also called delta-like protein 4; rHuman DLL4
The assay is described as above.

B1: Fab VH1-46_IGHD6-13*01_IGHJ4*01 & O1_IGKJ1*01 (Fab, V domains shown)
VH: QVQLVQSGAEVKKPGASVKVSCKASGYTFTSYYMHWVRQAPGQGLEWMGIINPSGGSTSYAQKFQGRVTMTRDTSTSTVYMELSSLRSEDTAVYYCAREGYSSSWYDYFDYWGQGTLVTVSS
VL: DIVMTQTPLSLPVTPGEPASISCRSSQSLLDSDDGNTYLDWYLQKPGQSPQLLIYTLSYRASGVPDRFSGSGSGTDFTLKISRVEAEDVGVYYCMQRIEFPSWTFGQGTKVEIKR
notes: Germline library Fab expressed in E. coli; VH was cloned into Plasmid A (CH1 constant region, His6 and Flag tags); The kappa VL was cloned into Plasmid C (kappa CL)
B1 gave an ECL signal in assay [1] of 829.

B2: Fab VH1-46_IGHD7-27*01_IGHJ2*01 & L6_IGKJ1*01 (Fab, V domains shown)
VH: QVQLVQSGAEVKKPGASVKVSCKASGYTFTSYYMHWVRQAPGQGLEWMGIINPSGGSTSYAQKFQGRVTMTRDTSTSTVYMELSSLRSEDTAVYYCARANWGYWYFDLWGRGTLVTVSS
VL: not shown
notes: Germline Fab made in E. coli; VH was cloned in Plasmid A (CH1 constant region, His6 and Flag tags) and the kappa VL in Plasmid C (kappa CL); Only the variable domains are tied to this Fab by name
Regarding B2, the ECL signal in assay [2] is 2350; in assay [3], 2110; in [4], 4230; in [5], 2580; in [6], 2680; in [7] it was 2030. The ECL signal in assay [8] is 2420; in [9], 2150; in assay [10] it was 2450.

B3: Fab VH4-34_IGHD7-27*01_IGHJ4*01 & L5_IGKJ1*01 (Fab, V domains shown)
VH: QVQLQQWGAGLLKPSETLSLTCAVYGGSFSGYYWSWIRQPPGKGLEWIGEINHSGSTNYNPSLKSRVTISVDTSKNQFSLKLSSVTAADTAVYYCARANWGDYFDYWGQGTLVTVSS
VL: DIQMTQSPSSVSASVGDRVTITCRASQGISSWLAWYQQKPGKAPKLLIYAASSLQSGVPSRFSGSGSGTDFTLTISSLQPEDFATYYCQQANSFPPWTFGQGTKVEIKR
notes: Germline library Fab expressed in E. coli; VH was cloned into Plasmid A, which adds CH1 with His6 and Flag tags
Take B3: the ECL signal was 1500 in [11]; 1060 in assay [12]; 857 in assay [13]; 1070 in [14]; 926 in assay [15]; 853 in [16]. The values for the ECL signal in assay [17] and in assay [18] were 1040 and 2380, respectively.

The values are drawn from patent publication US20120316071A1 (published 2012).
